For 167 variants, self-cleavage results are on record in the RNAGym collection of RNA variant scans (doi:10.7554/elife.80360).

Sequences and labels used below:
B1: HDV Ribozyme (parent)
chain: GGCCGGCAUGGUCCCAGCCUCCUCGCUGGCGCCGGCUGGGCAACAUUCCGAGGGGACCGUCCCCUCGGUAAUGGCGAAUGGGACCCA

This data set covers variants of B1. Briefly: self-cleavage, relative activity (ratio to wild type); higher = more cleavage; co-transcriptional.
On to C18U U46C, for which the self-cleavage was 0.374.

As to G40A C62U, the self-cleavage stood at 0.853. As for C13G C26U, the figure is 0.208; as for G1U G25U, 0.248; as for C7G G80U, 0.0462. As for U60G C64A, the figure is 1.07. As for G40C C63A, the figure is 0.475; as for C36A A43C, 0.095; as for U65G G81C, 0.439. For C64G G67U, the self-cleavage worked out at 0.365. Next, C75A G80A: 0.12; C4U C62G: 0.151; G5U G68U: 0.268. Regarding U9A G73A, the self-cleavage stood at 0.425. As for G31U C84U, the figure is 0.363. G28C G34C: the self-cleavage was found to be 0.156. Next, G52U C62U: 0.754; C19U A83U: 0.148; A71G C84U: 0.831. Next, G25C U65C: 0.0536; G40C G50C: 0.225; C26U A87U: 1.

Consider U60C G74A, for which the self-cleavage was 0.591. As for C30G G68U, the figure is 0.0228; as for G34U A87C, 0.119.

Take G5C A43C: the self-cleavage worked out at 0.

U69G A71C: the self-cleavage was found to be 0.575. As for U20A C84U, the figure is 0.0449; as for C33G G80C, 0. Next, G67U U79G: 0.516; G40C U72C: 0.174. As for U27C C30G, the figure is 0; as for C36U C85U, 0.88. On to G53U C66G, for which the self-cleavage was found to be 0.821. As for G2U C19U, the figure is 0.0155; as for G40C C48A, 0.424.

A51C C85U: the self-cleavage turned out to be 0.898. Next, C30U U72C: 0.0959; C3U: 0.802. As for G38C G80U, the figure is 0.0314; as for C22A U79A, 0.131. On to C32A G80C, for which the self-cleavage came to 0.161.

As for C24A C64G, the self-cleavage was 0.749. Next, G40A G81U: 0.342; C62A A78G: 0.78. Next, A8U G25U: 0.106; C18G G29U: 0.601; U27A C32G: 0.0545.

For G25A A56C, the self-cleavage is 0.325.

Take C7A A83C: the self-cleavage stood at 0.0923. Next, U27G C57U: 0.987; G35C G54U: 0.326. Regarding A77C G80U, the self-cleavage came to 0.219. As for C41G G55U, the figure is 0.86; as for U46A U69C, 0.779. As for U12G G76A, the figure is 0.917; as for A43C G52A, 0.511. Turning to C14U C63G, the self-cleavage amounted to 0.831. On to C26G A71U, for which the self-cleavage was 0.612.

In the case of U23G A71U, the self-cleavage is 0.633. For G2A C62G, the self-cleavage came to 0.086.

Take C13A U20C: the self-cleavage amounted to 0.0405. Next, G68A U79C: 0.233. As for G67C G82U, the figure is 0.185; as for C18A C36U, 0.0386; as for C18U U37A, 0.0773. As for C3U G59A, the figure is 0.925; as for C62A G67U, 0.464. For U27C G28A, the self-cleavage came to 0.135. As for C85A C86G, the figure is 0.791; as for C58U G82C, 0.386; as for G31C A77C, 0.225. Regarding G10U U23A, the self-cleavage was determined as 0.604. With G38U A87U, the self-cleavage was found to be 0.255. As for C44G A56C, the figure is 0.745. As for G1U G50C, the figure is 0.203. Next, C36G A42U: 0.113; G2C G17A: 0; G67C C86G: 0.933. In the case of U12C G76U, the self-cleavage is 0.489. Next, C22G A87C: 0.0866. On to G10U G74A, for which the self-cleavage was found to be 0.107. Next, U23C C61U: 0.975; A8C C24A: 0.434; C32U G38A: 0.216.

As to C13A C18G, the self-cleavage was found to be 0.0773. With C19U G74C, the self-cleavage was 0.126. Consider C36G G52U, for which the self-cleavage was determined as 0.14.

On to G31A C33G, for which the self-cleavage amounted to 0. Next, G11A G31A: 0.114; C14A G73A: 0.383. With C4G C58U, the self-cleavage came to 0.404.

For C14U G73C, the self-cleavage stood at 0.252. Next, A8C C19U: 0.0739. In the case of C19U C32A, the self-cleavage stood at 0.0361. As for A45U G52U, the figure is 0.674; as for C61A A87C, 1.07. For the variant C13A G67A, the self-cleavage turned out to be 0.23. For the variant A45U C64U, the self-cleavage is 0.764.

Regarding C4U G11A, the self-cleavage came out at 0.225. As for C13G G53U, the figure is 0.102.

In the case of G50U C86U, the self-cleavage was determined as 0.751. On to G40U C58G, for which the self-cleavage is 0.598. Consider A71U G81C, for which the self-cleavage was 0.345. As for C36G C57A, the figure is 0.177. For G25U G80A, the self-cleavage stood at 0.117. As for G68A A87G, the figure is 0.995; as for C32G G50C, 0.262. As for C26A G67A, the figure is 1.01; as for C14U U27G, 1.11; as for C19U G82U, 0.0702. Consider C19A A45U, for which the self-cleavage was 0.199. As for G34A A42C, the figure is 0.0354. C32A A71G: the self-cleavage came out at 0.128. As to C3G C15U, the self-cleavage was found to be 0.532. Next, G59U C84G: 0.731. Next, C7A C14G: 0; C41G C66G: 0.831.

Take G55U C63G: the self-cleavage is 0.695. As for C26A C85U, the figure is 0.942; as for U12G C32G, 0.0755; as for G35C A70C, 0.158. As for U23A C44U, the figure is 0.566. Next, U27C A78U: 0.297. Take U9G C57G: the self-cleavage stood at 1.19. Next, U23C G31C: 0.141. Next, C32G C49A: 0.

Consider A56C G67U, for which the self-cleavage was 0.814. As for C36A C61U, the figure is 0.138; as for C33U C61G, 0.831.

Regarding C33A G82C, the self-cleavage came to 0.17. Next, C7G U72A: 0.0755; A8C C62G: 0.475.

In the case of U60A A87G, the self-cleavage is 0.823. As for C66U G76U, the figure is 0.936. As for G6C G67A, the figure is 0.35; as for U23C G55C, 0.914. As for G10A C15G, the figure is 0.166; as for G17C G68U, 0.425; as for U23A G34U, 0.149. Consider G2A G6U, for which the self-cleavage came to 0.0683. As for U9A A56U, the figure is 0.867; as for C4G C21U, 0; as for A83G C84G, 0.95.

On to A83G C84A, for which the self-cleavage is 1.02.

Regarding G1A G81A, the self-cleavage came to 0.0462.

Turning to G2C C19A, the self-cleavage was 0.106. As for C4U C14A, the figure is 0.519. Take A8U G31C: the self-cleavage amounted to 0.115.

Regarding G74C C86A, the self-cleavage is 0.201. Next, C44G C58A: 1.07; C15G U72C: 0.119; G52C C57G: 0.866. As for A45U G68U, the figure is 0.845; as for C7A C86G, 0.571. Next, C7G G29A: 0; G1U G67A: 0.506. Turning to U9G G80A, the self-cleavage worked out at 0.516.

As for G59C G73C, the self-cleavage came to 0.575.

Take U9A G40A: the self-cleavage is 1.02. As for C58A C75A, the figure is 0.201. As for G81U C84G, the figure is 0.0923; as for C32U C33G, 0.117. Take U60C C75G: the self-cleavage stood at 0.128. As for U69C A83G, the figure is 0.755; as for G38A G80U, 0.156. Take G39A U60C: the self-cleavage worked out at 0.746.
